The values that follow come from patent US20090280138A1 (OXFORD BIOMEDICA UK, published 2009).

Experiment [1] has as its target T1, MHC class I molecule HLA-A*0201 (iTopia plate-bound monomer) (biotin (bound to streptavidin-coated plate)).
T1 construct: also called A2
As to the kind of experiment: iTopia off-rate assay, 37 C; fit R^2 0.79. As to the method: (§1) The 9 mers were tested for Peptide Binding, Off Rate and Affinity using iTopia Epitope Discovery System in accordance with the manufacturer's instructions. Briefly, 96 well microtitre plates coated with MHC molecules representing different MHC alleles are used to identify candidate peptides. […] Determinations are performed in duplicate using an ELISA plate reader and included allele specific positive controls.
(§2) A one-phase exponential decay curve, with a plateau given equal to 0, was generated using GraphPad Prism® software, which calculated the t1/2 and goodness-of-fit, as measured by r², for each peptide.

Experiment [2] deals with T2, MHC class I molecule HLA-B*0702 (iTopia plate-bound monomer) (biotin (bound to streptavidin-coated plate)).
T2 construct: Commercial iTopia system; also called B7
Briefly: iTopia off-rate assay, 37 C; fit R^2 0.1. As to the method: as §1, §2

The target of experiment [3] is T2, MHC class I molecule HLA-B*0702 (iTopia …). As to the kind of experiment: iTopia off-rate assay, 37 C; fit R^2 0.76. As to the method: as §1, §2
Experiment [4] concerns the target T3, MHC class I molecule HLA-A*0301 (iTopia plate-bound monomer) (biotin (bound to streptavidin-coated plate)).
T3 construct: also called A3
Briefly: iTopia off-rate assay, 37 C; fit R^2 0.64. As to the method: as §1, §2

Experiment [5] deals with T1, MHC class I molecule HLA-A*0201 (iTopia …). As to the kind of experiment: iTopia off-rate assay, 37 C; fit R^2 0.42. As to the method: as §1, §2
Experiment [6] addresses T2, MHC class I molecule HLA-B*0702 (iTopia …). Briefly: iTopia off-rate assay, 37 C; fit R^2 0.82. As to the method: as §1, §2
Experiment [7] has as its target T1, MHC class I molecule HLA-A*0201 (iTopia …). As to the kind of experiment: iTopia off-rate assay, 37 C; fit R^2 0.95. In outline:
(§3)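 Each t1/2 is derived by fitting a single-phase exponential decay, with the plateau set to zero, to peptide dissociation from plate-coated MHC. The same fit supplies r² for every peptide. Nonamers are measured in duplicate using an ELISA reader.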

Experiment [8] addresses T3, MHC class I molecule HLA-A*0301 (iTopia …). As to the kind of experiment: iTopia off-rate assay, 37 C; fit R^2 0.61. As to the method:
as §1, §2

The target in experiment [9] is T2, MHC class I molecule HLA-B*0702 (iTopia …). As to the kind of experiment: iTopia off-rate assay, 37 C; fit R^2 0.68. As to the method:
as §1, §2

Experiment [10] has as its target T1, MHC class I molecule HLA-A*0201 (iTopia …). As to the kind of experiment: iTopia off-rate assay, 37 C; fit R^2 0.58. As to the method: as §1, §2
The target in experiment [11] is T2, MHC class I molecule HLA-B*0702 (iTopia …). As to the kind of experiment: iTopia off-rate assay, 37 C; fit R^2 0.95. In outline: as §3
For experiment [12] the target is unchanged. Briefly: iTopia off-rate assay, 37 C; fit R^2 0.26. As to the method:
as §1, §2

Experiment [13] has the same target. Briefly: iTopia off-rate assay, 37 C; fit R^2 0.67. As to the method:
as §1, §2

The target of experiment [14] is T1, MHC class I molecule HLA-A*0201 (iTopia …). As to the kind of experiment: iTopia off-rate assay, 37 C; fit R^2 0.87. As to the method: as §1, §2
The target is the same in experiment [15]. Briefly: iTopia off-rate assay, 37 C; fit R^2 0.81. As to the method: as §1, §2
In experiment [16] the target is T2, MHC class I molecule HLA-B*0702 (iTopia …). Briefly: iTopia off-rate assay, 37 C; fit R^2 0.81. As to the method: as §1, §2
The target of experiment [17] is T4, MHC class I molecule HLA-A*0101 (iTopia plate-bound monomer) (biotin (bound to streptavidin-coated plate)).
T4 construct: also called A1
As to the kind of experiment: iTopia off-rate assay, 37 C; fit R^2 0.76. As to the method:
as §1, §2

Experiment [18] concerns the target T1, MHC class I molecule HLA-A*0201 (iTopia …). Briefly: iTopia off-rate assay, 37 C; fit R^2 0.76. As to the method: as §1, §2
Experiment [19] addresses T2, MHC class I molecule HLA-B*0702 (iTopia …). Briefly: iTopia off-rate assay, 37 C; fit R^2 0.73. As to the method:
as §1, §2

For experiment [20], the target named is T4, MHC class I molecule HLA-A*0101 (iTopia …). Briefly: iTopia off-rate assay, 37 C; fit R^2 0.12. As to the method: as §1, §2
The target of experiment [21] is T1, MHC class I molecule HLA-A*0201 (iTopia …). As to the kind of experiment: iTopia off-rate assay, 37 C; fit R^2 0.2. As to the method:
as §1, §2

The target in experiment [22] is T3, MHC class I molecule HLA-A*0301 (iTopia …). As to the kind of experiment: iTopia off-rate assay, 37 C; fit R^2 0.99. As to the method: as §1, §2
The target in experiment [23] is T1, MHC class I molecule HLA-A*0201 (iTopia …). Briefly: iTopia off-rate assay, 37 C; fit R^2 0.11. As to the method: as §1, §2
Experiment [24] deals with T3, MHC class I molecule HLA-A*0301 (iTopia …). As to the kind of experiment: iTopia off-rate assay, 37 C; fit R^2 0.01. As to the method:
as §1, §2

Experiment [25] has the same target. Briefly: iTopia off-rate assay, 37 C; fit R^2 0.97. As to the method: as §1, §2
Experiment [26] concerns the target T1, MHC class I molecule HLA-A*0201 (iTopia …). As to the kind of experiment: iTopia off-rate assay, 37 C; fit R^2 0.77. As to the method: as §1, §2
Experiment [27] has the same target. As to the kind of experiment: iTopia off-rate assay, 37 C; fit R^2 0.3. As to the method: as §1, §2
Experiment [28] deals with T2, MHC class I molecule HLA-B*0702 (iTopia …). As to the kind of experiment: iTopia off-rate assay, 37 C; fit R^2 0.87. As to the method: as §1, §2
The target in experiment [29] is T1, MHC class I molecule HLA-A*0201 (iTopia …). Briefly: iTopia off-rate assay, 37 C; fit R^2 0.26. As to the method: as §1, §2
The target is the same in experiment [30]. Briefly: iTopia off-rate assay, 37 C; fit R^2 0.72. As to the method:
as §1, §2

Experiment [31] addresses T4, MHC class I molecule HLA-A*0101 (iTopia …). Briefly: iTopia off-rate assay, 37 C; fit R^2 0.18. As to the method:
as §1, §2

For experiment [32], the target named is T1, MHC class I molecule HLA-A*0201 (iTopia …). Briefly: iTopia off-rate assay, 37 C; fit R^2 0.97. As to the method: as §1, §2
Experiment [33] addresses T3, MHC class I molecule HLA-A*0301 (iTopia …). Briefly: iTopia off-rate assay, 37 C; fit R^2 0.96. As to the method: as §1, §2
Experiment [34] has as its target T2, MHC class I molecule HLA-B*0702 (iTopia …). Briefly: iTopia off-rate assay, 37 C; fit R^2 0.86. As to the method:
as §1, §2

Experiment [35] has as its target T4, MHC class I molecule HLA-A*0101 (iTopia …). Briefly: iTopia off-rate assay, 37 C; fit R^2 0.15. As to the method:
as §1, §2

Experiment [36] has as its target T2, MHC class I molecule HLA-B*0702 (iTopia …). Briefly: iTopia off-rate assay, 37 C; fit R^2 0.38. As to the method: as §1, §2
Experiment [37] addresses T1, MHC class I molecule HLA-A*0201 (iTopia …). Briefly: iTopia off-rate assay, 37 C; fit R^2 0.75. As to the method: as §1, §2
The target is the same in experiment [38]. As to the kind of experiment: iTopia off-rate assay, 37 C; fit R^2 0.46. As to the method: as §1, §2
Experiment [39] addresses T2, MHC class I molecule HLA-B*0702 (iTopia …). Briefly: iTopia off-rate assay, 37 C; fit R^2 0. As to the method: as §1, §2

AALLAGRAL [5T4 9-mer peptide 101 AALLAGRAL]: the results for the t½ half life in [1] and in experiment [2] were 1.9 h and 1.6 h, respectively.

Turning to YPEKMRNRV (also called Peptide No 163) [5T4 9-mer peptide 163 YPEKMRNRV], in [3], the t½ half life was 1.9 h.

For GLPHIRVFL (also called Peptide No 142) [5T4 9-mer peptide 142 GLPHIRVFL], the t½ half life in [4] was found to be 6 h; in [5], 12.9 h; in experiment [6] it was 54 min.

With RALQGLRRL [5T4 9-mer peptide 104 RALQGLRRL], the figures for the t½ half life in [7], in experiment [8] and in experiment [9] were 36 min, 24 min and 6 min, respectively.

Regarding LHNGTLAEL (also called Peptide No 137) [5T4 9-mer peptide 137 LHNGTLAEL], the t½ half life in [10] was 4.2 h; in [11], 18 min.

On to APSPLVELI (also called Peptide No 86) [5T4 9-mer peptide 86 APSPLVELI], for which the t½ half life in experiment [12] was 1.6 h.

For ASVSAPSPL (also called Peptide No 84) [5T4 9-mer peptide 84 ASVSAPSPL], the t½ half life came to 6 min in [13] and 24 min in experiment [14].

On to LPSLRHLDL (also called Peptide No 117) [5T4 9-mer peptide 117 LPSLRHLDL], for which the t½ half life turned out to be 42 min in experiment [15] and 3 h in [16].

On to QTSYVFLGI (also called Peptide No 177) [5T4 9-mer peptide 177 QTSYVFLGI], for which the t½ half life in [17] turned out to be 12 min; in experiment [14] it was 36 min.

For LDLSNNSLV (also called Peptide No 120) [5T4 9-mer peptide 120 LDLSNNSLV], the t½ half life in experiment [18] amounted to 3.4 h.

LTYVSFRNL [5T4 9-mer peptide 125 LTYVSFRNL]: the t½ half life worked out at 6 h in [19], 3.9 h in experiment [20], 8.1 h in [21] and 42 min in [22].

EVVQGKDRL [5T4 9-mer peptide 157 EVVQGKDRL] yielded a t½ half life in experiment [23] of 11 h.

Regarding VVAALLAGR (also called Peptide No 100) [5T4 9-mer peptide 100 VVAALLAGR], the t½ half life in experiment [24] was 8.1 h.

As to VLAQLPSLR [5T4 9-mer peptide 115 VLAQLPSLR], the t½ half life in experiment [25] stood at 12 min; in experiment [26], 36 min.

Consider EKMRNRVLL [5T4 9-mer peptide 164 EKMRNRVLL], for which the t½ half life in [27] is 7 h.

LPRDVLAQL [5T4 9-mer peptide 113 LPRDVLAQL] registered a t½ half life in [28] of 3.3 h.

Molecule VFLGIVLAL (also called Peptide No 179) [5T4 9-mer peptide 179 VFLGIVLAL] displayed a t½ half life in [29] of 15 h.

With LTCAYPEKM (also called Peptide No 161) [5T4 9-mer peptide 161 LTCAYPEKM], the t½ half life in experiment [30] worked out at 3.1 h; in experiment [31], 3.7 h.

LASNHFLYL [5T4 9-mer peptide 109 LASNHFLYL]: the t½ half life in experiment [32] came out at 1.3 h; in experiment [33], 3.6 h; in experiment [34], 12 min; in experiment [35] it was 3 h.

Regarding LSNNSLVSL [5T4 9-mer peptide 121 LSNNSLVSL], the t½ half life worked out at 4.1 h in [36] and 48 min in [37].

Regarding ILNHIVPPE (also called Peptide No 90) [5T4 9-mer peptide 90 ILNHIVPPE], the t½ half life in [38] stood at 13 h.

For YVSFRNLTH (also called Peptide No 126) [5T4 9-mer peptide 126 YVSFRNLTH], the t½ half life in experiment [39] was 2.6 h; in experiment [33], 0.9 h.
